Source: patent US20140087995A1 (published 2014)
Numbered stars: 1 amine (or outer) side, 2 acyl side, 3 side chain; on linkers, the order of the positions; unused ones are H or OH. Bridge positions count the residues as written; N and C are the ends. Side chains are listed from the residue outwards. Ends that are not written are not given here. * marks the point of attachment. C20 diacid = O=C(O)CCCCCCCCCCCCCCCCCCC(=O)*; γGlu = O=C(O)[C@H](CCC(=O)[*:2])N[*:1]; AEEA = NCCOCCOCC(=O)O

T1: rat amylin receptor (rat calcitonin receptor + rat RAMP 3) (rat, UniProt P32214 25-516; Q9JJ73 23-147)
T1 construct: whole, on cells; Membranes prepared from transiently transfected BHK tk'ts 13 cells (Assay VI); also called rAmylin-R; rAmylin
T1 sequence (looked up) 1: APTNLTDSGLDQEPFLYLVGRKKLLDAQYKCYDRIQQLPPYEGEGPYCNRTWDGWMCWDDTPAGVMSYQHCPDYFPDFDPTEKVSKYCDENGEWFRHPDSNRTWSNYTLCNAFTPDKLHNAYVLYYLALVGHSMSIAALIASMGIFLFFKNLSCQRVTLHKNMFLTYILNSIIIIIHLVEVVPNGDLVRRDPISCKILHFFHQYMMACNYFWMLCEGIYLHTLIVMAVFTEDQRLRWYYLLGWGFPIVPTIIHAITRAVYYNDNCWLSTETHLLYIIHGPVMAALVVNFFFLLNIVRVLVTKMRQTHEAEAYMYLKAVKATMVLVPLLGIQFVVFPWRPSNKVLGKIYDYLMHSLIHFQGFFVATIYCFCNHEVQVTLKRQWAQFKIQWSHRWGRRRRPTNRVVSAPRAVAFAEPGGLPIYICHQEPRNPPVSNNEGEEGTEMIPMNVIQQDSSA
T1 sequence (looked up) 2: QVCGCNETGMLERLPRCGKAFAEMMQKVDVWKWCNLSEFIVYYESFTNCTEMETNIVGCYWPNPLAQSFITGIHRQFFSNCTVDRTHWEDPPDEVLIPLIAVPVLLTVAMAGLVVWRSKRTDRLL

T2: rat calcitonin receptor (rat, UniProt P32214 25-516)
T2 construct: whole, on cells; Membranes prepared from transiently transfected BHK tk'ts 13 cells (Assay VIII); also called rCTR; rCT
T2 sequence (looked up): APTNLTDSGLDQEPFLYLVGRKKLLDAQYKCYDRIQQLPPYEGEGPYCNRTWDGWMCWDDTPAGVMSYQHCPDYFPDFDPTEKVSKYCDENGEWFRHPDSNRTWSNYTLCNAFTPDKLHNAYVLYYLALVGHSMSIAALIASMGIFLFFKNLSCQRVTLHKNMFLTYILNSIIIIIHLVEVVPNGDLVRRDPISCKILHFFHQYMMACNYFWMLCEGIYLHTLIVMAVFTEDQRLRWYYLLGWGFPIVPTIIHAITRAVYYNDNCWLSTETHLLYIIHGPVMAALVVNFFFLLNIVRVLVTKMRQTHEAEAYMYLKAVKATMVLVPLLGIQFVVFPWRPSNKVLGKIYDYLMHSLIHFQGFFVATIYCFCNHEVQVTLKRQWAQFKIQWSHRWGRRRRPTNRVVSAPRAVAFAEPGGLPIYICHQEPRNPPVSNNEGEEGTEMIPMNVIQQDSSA

T3: human calcitonin receptor (human, UniProt P30988 25-474)
T3 construct: whole, on cells; Membranes prepared from a stably transfected BHK cell line (Assay VII); also called hCTR; hCT
T3 sequence (looked up): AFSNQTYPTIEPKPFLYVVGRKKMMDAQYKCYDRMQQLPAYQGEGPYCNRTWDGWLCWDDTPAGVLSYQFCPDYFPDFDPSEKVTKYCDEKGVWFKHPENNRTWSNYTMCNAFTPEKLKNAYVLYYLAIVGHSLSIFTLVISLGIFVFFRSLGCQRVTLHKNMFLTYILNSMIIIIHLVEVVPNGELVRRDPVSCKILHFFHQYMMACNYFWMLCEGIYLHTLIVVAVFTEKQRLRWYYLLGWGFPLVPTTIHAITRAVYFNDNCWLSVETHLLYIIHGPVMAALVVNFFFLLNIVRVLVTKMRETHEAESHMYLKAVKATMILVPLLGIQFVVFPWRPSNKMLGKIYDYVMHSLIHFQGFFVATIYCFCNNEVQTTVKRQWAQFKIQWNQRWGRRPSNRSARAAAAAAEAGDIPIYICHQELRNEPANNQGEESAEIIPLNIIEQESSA


Experiments:
[1] = biological target: T1, rat amylin receptor (rat calcitonin …); test: SPA competition vs 125I-rat amylin, membranes of BHK cells with rat calcitonin receptor + rat RAMP3 (Assay VI)
[2] = biological target: T2, rat calcitonin receptor; test: ratio of binding IC50s: rat calcitonin receptor / rat amylin receptor (reference)
[3] = biological target: T3, human calcitonin receptor; test: ratio of binding IC50s: human calcitonin receptor / human amylin receptor (reference)
How it was run: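 Membranes (35 ng/μL final) + SPA beads, 50 mM Hepes pH 7.4 buffer with 1 mM CaCl2, 5 mM MgCl₂, 0.1% OA, 0.02% Tween20; 120 min, 25° C, shaking; centrifuged, counted; IC₅₀ by one-site binding competition.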

[4] = biological target: T2, rat calcitonin receptor; test: SPA competition vs 125I-calcitonin, membranes of BHK cells with rat calcitonin receptor (Assay VIII)

IC50 [1] [nM] | Ratio rCT/rAmylin binding [2] | Ratio hCT/hAmylin binding [3] | IC50 [4] [nM] | Binder
0.276 | 162 | 32 | 44.8 | K([AEEA-γGlu-C20 diacid])CNTATCATQRLAGFLRHSSPNFGAIPSSTPVGSNTY-NH2 (disulfide 2-7; N-terminus assumed; SMILES CC[C@H](C)[C@H](NC(=O)[C@H](C)NC(=O)CNC(=O)[C@H](Cc1ccccc1)NC(=O)[C@H](CC(N)=O)NC(=O)[C@@H]1CCCN1C(=O)[C@H](CO)NC(=O)[C@H](CO)NC(=O)[C@H](Cc1c[nH]cn1)NC(=O)[C@H](CCCNC(=N)N)NC(=O)[C@H](CC(C)C)NC(=O)[C@H](Cc1ccccc1)NC(=O)CNC(=O)[C@H](C)NC(=O)[C@H](CC(C)C)NC(=O)[C@H](CCCNC(=N)N)NC(=O)[C@H](CCC(N)=O)NC(=O)[C@@H](NC(=O)[C@H](C)NC(=O)[C@@H]1CSSC[C@H](NC(=O)[C@@H](N)CCCCNC(=O)COCCOCCNC(=O)CC[C@H](NC(=O)CCCCCCCCCCCCCCCCCCC(=O)O)C(=O)O)C(=O)N[C@@H](CC(N)=O)C(=O)N[C@@H]([C@@H](C)O)C(=O)N[C@@H](C)C(=O)N[C@@H]([C@@H](C)O)C(=O)N1)[C@@H](C)O)C(=O)N1CCC[C@H]1C(=O)N[C@@H](CO)C(=O)N[C@@H](CO)C(=O)N[C@H](C(=O)N1CCC[C@H]1C(=O)N[C@H](C(=O)NCC(=O)N[C@@H](CO)C(=O)N[C@@H](CC(N)=O)C(=O)N[C@H](C(=O)N[C@@H](Cc1ccc(O)cc1)C(N)=O)[C@@H](C)O)C(C)C)[C@@H](C)O, Analogue of human amylin; also called compound 71)
0.234 | 122 | 64.4 | 28.5 | K([AEEA-γGlu-C20 diacid])CNTATCATQRLAHFLRHSSPNFGAIPSSTNVGPNTY-NH2 (disulfide 2-7; N-terminus assumed; SMILES CC[C@H](C)[C@H](NC(=O)[C@H](C)NC(=O)CNC(=O)[C@H](Cc1ccccc1)NC(=O)[C@H](CC(N)=O)NC(=O)[C@@H]1CCCN1C(=O)[C@H](CO)NC(=O)[C@H](CO)NC(=O)[C@H](Cc1c[nH]cn1)NC(=O)[C@H](CCCNC(=N)N)NC(=O)[C@H](CC(C)C)NC(=O)[C@H](Cc1ccccc1)NC(=O)[C@H](Cc1c[nH]cn1)NC(=O)[C@H](C)NC(=O)[C@H](CC(C)C)NC(=O)[C@H](CCCNC(=N)N)NC(=O)[C@H](CCC(N)=O)NC(=O)[C@@H](NC(=O)[C@H](C)NC(=O)[C@@H]1CSSC[C@H](NC(=O)[C@@H](N)CCCCNC(=O)COCCOCCNC(=O)CC[C@H](NC(=O)CCCCCCCCCCCCCCCCCCC(=O)O)C(=O)O)C(=O)N[C@@H](CC(N)=O)C(=O)N[C@@H]([C@@H](C)O)C(=O)N[C@@H](C)C(=O)N[C@@H]([C@@H](C)O)C(=O)N1)[C@@H](C)O)C(=O)N1CCC[C@H]1C(=O)N[C@@H](CO)C(=O)N[C@@H](CO)C(=O)N[C@H](C(=O)N[C@@H](CC(N)=O)C(=O)N[C@H](C(=O)NCC(=O)N1CCC[C@H]1C(=O)N[C@@H](CC(N)=O)C(=O)N[C@H](C(=O)N[C@@H](Cc1ccc(O)cc1)C(N)=O)[C@@H](C)O)C(C)C)[C@@H](C)O, Analogue of human amylin; also called compound 68)
0.842 | 39.7 | 66.7 | 33.4 | K([AEEA-γGlu-C20 diacid])CNTATCATQRLAHFLRHSSPNFGAIPSSTPVGSNTY-NH2 (disulfide 2-7; N-terminus assumed; SMILES CC[C@H](C)[C@H](NC(=O)[C@H](C)NC(=O)CNC(=O)[C@H](Cc1ccccc1)NC(=O)[C@H](CC(N)=O)NC(=O)[C@@H]1CCCN1C(=O)[C@H](CO)NC(=O)[C@H](CO)NC(=O)[C@H](Cc1c[nH]cn1)NC(=O)[C@H](CCCNC(=N)N)NC(=O)[C@H](CC(C)C)NC(=O)[C@H](Cc1ccccc1)NC(=O)[C@H](Cc1c[nH]cn1)NC(=O)[C@H](C)NC(=O)[C@H](CC(C)C)NC(=O)[C@H](CCCNC(=N)N)NC(=O)[C@H](CCC(N)=O)NC(=O)[C@@H](NC(=O)[C@H](C)NC(=O)[C@@H]1CSSC[C@H](NC(=O)[C@@H](N)CCCCNC(=O)COCCOCCNC(=O)CC[C@H](NC(=O)CCCCCCCCCCCCCCCCCCC(=O)O)C(=O)O)C(=O)N[C@@H](CC(N)=O)C(=O)N[C@@H]([C@@H](C)O)C(=O)N[C@@H](C)C(=O)N[C@@H]([C@@H](C)O)C(=O)N1)[C@@H](C)O)C(=O)N1CCC[C@H]1C(=O)N[C@@H](CO)C(=O)N[C@@H](CO)C(=O)N[C@H](C(=O)N1CCC[C@H]1C(=O)N[C@H](C(=O)NCC(=O)N[C@@H](CO)C(=O)N[C@@H](CC(N)=O)C(=O)N[C@H](C(=O)N[C@@H](Cc1ccc(O)cc1)C(N)=O)[C@@H](C)O)C(C)C)[C@@H](C)O, Analogue of human amylin; also called compound 61)
1.67 | 36.2 | 68.1 | 60.4 | K([AEEA-γGlu-C20 diacid])CNTATCATQRLAHFLRHSSPNFGAIPSSTNVGHNTY-NH2 (disulfide 2-7; N-terminus assumed; SMILES CC[C@H](C)[C@H](NC(=O)[C@H](C)NC(=O)CNC(=O)[C@H](Cc1ccccc1)NC(=O)[C@H](CC(N)=O)NC(=O)[C@@H]1CCCN1C(=O)[C@H](CO)NC(=O)[C@H](CO)NC(=O)[C@H](Cc1c[nH]cn1)NC(=O)[C@H](CCCNC(=N)N)NC(=O)[C@H](CC(C)C)NC(=O)[C@H](Cc1ccccc1)NC(=O)[C@H](Cc1c[nH]cn1)NC(=O)[C@H](C)NC(=O)[C@H](CC(C)C)NC(=O)[C@H](CCCNC(=N)N)NC(=O)[C@H](CCC(N)=O)NC(=O)[C@@H](NC(=O)[C@H](C)NC(=O)[C@@H]1CSSC[C@H](NC(=O)[C@@H](N)CCCCNC(=O)COCCOCCNC(=O)CC[C@H](NC(=O)CCCCCCCCCCCCCCCCCCC(=O)O)C(=O)O)C(=O)N[C@@H](CC(N)=O)C(=O)N[C@@H]([C@@H](C)O)C(=O)N[C@@H](C)C(=O)N[C@@H]([C@@H](C)O)C(=O)N1)[C@@H](C)O)C(=O)N1CCC[C@H]1C(=O)N[C@@H](CO)C(=O)N[C@@H](CO)C(=O)N[C@H](C(=O)N[C@@H](CC(N)=O)C(=O)N[C@H](C(=O)NCC(=O)N[C@@H](Cc1c[nH]cn1)C(=O)N[C@@H](CC(N)=O)C(=O)N[C@H](C(=O)N[C@@H](Cc1ccc(O)cc1)C(N)=O)[C@@H](C)O)C(C)C)[C@@H](C)O, Analogue of human amylin; also called compound 80)
5.05 | 94.3 | 120 | 477 | K([AEEA-γGlu-C20 diacid])CNTATCATQRLAHFLRHSSPNFGAIPSSTNVGRNTY-NH2 (disulfide 2-7; N-terminus assumed; SMILES CC[C@H](C)[C@H](NC(=O)[C@H](C)NC(=O)CNC(=O)[C@H](Cc1ccccc1)NC(=O)[C@H](CC(N)=O)NC(=O)[C@@H]1CCCN1C(=O)[C@H](CO)NC(=O)[C@H](CO)NC(=O)[C@H](Cc1c[nH]cn1)NC(=O)[C@H](CCCNC(=N)N)NC(=O)[C@H](CC(C)C)NC(=O)[C@H](Cc1ccccc1)NC(=O)[C@H](Cc1c[nH]cn1)NC(=O)[C@H](C)NC(=O)[C@H](CC(C)C)NC(=O)[C@H](CCCNC(=N)N)NC(=O)[C@H](CCC(N)=O)NC(=O)[C@@H](NC(=O)[C@H](C)NC(=O)[C@@H]1CSSC[C@H](NC(=O)[C@@H](N)CCCCNC(=O)COCCOCCNC(=O)CC[C@H](NC(=O)CCCCCCCCCCCCCCCCCCC(=O)O)C(=O)O)C(=O)N[C@@H](CC(N)=O)C(=O)N[C@@H]([C@@H](C)O)C(=O)N[C@@H](C)C(=O)N[C@@H]([C@@H](C)O)C(=O)N1)[C@@H](C)O)C(=O)N1CCC[C@H]1C(=O)N[C@@H](CO)C(=O)N[C@@H](CO)C(=O)N[C@H](C(=O)N[C@@H](CC(N)=O)C(=O)N[C@H](C(=O)NCC(=O)N[C@@H](CCCNC(=N)N)C(=O)N[C@@H](CC(N)=O)C(=O)N[C@H](C(=O)N[C@@H](Cc1ccc(O)cc1)C(N)=O)[C@@H](C)O)C(C)C)[C@@H](C)O, Analogue of human amylin; also called compound 84)
